Reference: doi:10.1101/2021.11.02.466367
Several values for one entry are separate records, joined by “and”; a condition that tells them apart may be missing. Equal entries are not always repeated.

What was measured:
[1] = target: Csx28 (Prevotella buccae Type VI-B2 CRISPR-Cas accessory protein), recombinant, DDM-solubilised (Prevotella buccae ATCC 33574); test: cryo-EM structure
[2] = target: Csx28 (Prevotella buccae Type VI-B2 CRISPR-Cas accessory protein), recombinant, DDM-solubilised (Prevotella buccae ATCC 33574); test: SEC-MALS

stoichiometry N [1]: 8 and 16 | stoichiometry N [2]: 8 and 16
Substance: Csx28 (Prevotella buccae Type VI-B2 CRISPR-Cas accessory protein), recombinant, DDM-solubilised (natural protein)
